Assay results: patent US20050038228A1
Changes are numbered by the printed parent chain. One block for each binder: values may come before it.

How the values were obtained:
[1] = biological target: rheumatoid factor in serum of rheumatism patients (human); assay: batch adsorption with γ-sterilized adsorbent: 100 µL adsorbent with 600 µL rheumatism patient serum, 37° C., 2 h; rheumatoid factor depletion from the supernatant
[2] = biological target: IgG in healthy human serum (human); assay: batch adsorption as in Example 7 with γ-sterilized adsorbent and healthy human serum; IgG depletion from the supernatant
[3] = biological target: anti-β1 adrenoceptor antibody in serum of patients with dilated cardiomyopathy (human); assay: batch adsorption with γ-sterilized adsorbent and dilated cardiomyopathy patient serum; antibody left in the supernatant measured by ELISA on the β1-adrenoceptor second loop peptide
[4] = biological target: immune complex prepared by heating a human IgG solution (10 mg/mL) at 63° C. for 15 minutes (human); assay: batch adsorption from healthy human serum spiked with immune complex (20 µg/mL); supernatant measured with a C1q-CIC kit
[5] = biological target: immune complex prepared by heating a human IgG solution (10 mg/mL) at 63° C. for 15 minutes (human); assay: batch adsorption after γ-ray sterilization (25 kGy) from healthy human serum spiked with immune complex (20 µg/mL); supernatant measured with a C1q-CIC kit
[6] = biological target: IgG in healthy human serum (human); assay: batch adsorption: 100 µL adsorbent with 300 µL healthy human serum, 37° C., 2 h; IgG depletion from the supernatant against a saline control
[7] = biological target: IgG in healthy human serum (human); assay: batch adsorption after γ-ray sterilization (25 kGy): 100 µL adsorbent with 300 µL healthy human serum, 37° C., 2 h; IgG depletion from the supernatant

B1: MG56 peptide (peptide)
peptide: MTTYKLVINGKTLKGETTTKAVDAETAEKAFKQYANDNGVDGVWTYDDATKTFTVTE
Adsorption ratio of rheumatoid factor (%) [1]: 34.4%

B3: C15 peptide (peptide)
peptide: MTTYKLVINGKTLKGETTTKAVDAETAERAFRQYANDNGVEGLWTYDPATKTFTVTEC
Adsorption ratio of an immune complex before sterilization (%) [4]: 85.2% | Adsorption ratio of an immune complex after sterilization (%) [5]: 84.1%

B4: C24 peptide (peptide)
peptide: B3 peptide with Q33K, E41D, L43M
Adsorption ratio of an immune complex before sterilization (%) [4]: 81.5% | Adsorption ratio of an immune complex after sterilization (%) [5]: 80.5%

B5: B04 peptide (peptide)
peptide: B3 peptide with Q33K, N36T, E41D, L43M
Adsorption ratio of an immune complex before sterilization (%) [4]: 92.4% | Adsorption ratio of an immune complex after sterilization (%) [5]: 91.6%

The next lines start with results.

Adsorption ratio of IgG (%) [2]: 59.7% | Adsorption ratio of rheumatoid factor (%) [1]: 56.3%
B2: C36 peptide (peptide)
peptide: B3 peptide with N36T, L43M
Adsorption ratio of β1 adrenoceptor (%) [3]: 77.8%

Adsorption ratio of IgG before sterilization (%) [6]: 97.1% | Adsorption ratio of IgG after sterilization (%) [7]: 90.2%
B6: CO4 peptide (peptide)
peptide: B3 peptide with Q33K, L43I
